Source: US20200157236A1 (CELLDEX THERAPEUTICS, published 2020)

Target: T1, purified ALK protein (BLitz, Table 20) (Homo sapiens (Human), UniProt Q9UM73 19-1038, limits assumed)
T1 construct: also called purified ALK proteins
Assay: BLI (BLitz), mAb on Protein A tip, purified ALK in solution
Summary of the method: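 Humanized anti-ALK mAbs loaded at 0.5 mg/mL on Protein A tips; after stable baseline, purified ALK protein at 70 μg/mL added. Kinetic traces fit to a single binding site model to give monovalent KD.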

T1 sequence (Q9UM73 19-1038 limits assumed): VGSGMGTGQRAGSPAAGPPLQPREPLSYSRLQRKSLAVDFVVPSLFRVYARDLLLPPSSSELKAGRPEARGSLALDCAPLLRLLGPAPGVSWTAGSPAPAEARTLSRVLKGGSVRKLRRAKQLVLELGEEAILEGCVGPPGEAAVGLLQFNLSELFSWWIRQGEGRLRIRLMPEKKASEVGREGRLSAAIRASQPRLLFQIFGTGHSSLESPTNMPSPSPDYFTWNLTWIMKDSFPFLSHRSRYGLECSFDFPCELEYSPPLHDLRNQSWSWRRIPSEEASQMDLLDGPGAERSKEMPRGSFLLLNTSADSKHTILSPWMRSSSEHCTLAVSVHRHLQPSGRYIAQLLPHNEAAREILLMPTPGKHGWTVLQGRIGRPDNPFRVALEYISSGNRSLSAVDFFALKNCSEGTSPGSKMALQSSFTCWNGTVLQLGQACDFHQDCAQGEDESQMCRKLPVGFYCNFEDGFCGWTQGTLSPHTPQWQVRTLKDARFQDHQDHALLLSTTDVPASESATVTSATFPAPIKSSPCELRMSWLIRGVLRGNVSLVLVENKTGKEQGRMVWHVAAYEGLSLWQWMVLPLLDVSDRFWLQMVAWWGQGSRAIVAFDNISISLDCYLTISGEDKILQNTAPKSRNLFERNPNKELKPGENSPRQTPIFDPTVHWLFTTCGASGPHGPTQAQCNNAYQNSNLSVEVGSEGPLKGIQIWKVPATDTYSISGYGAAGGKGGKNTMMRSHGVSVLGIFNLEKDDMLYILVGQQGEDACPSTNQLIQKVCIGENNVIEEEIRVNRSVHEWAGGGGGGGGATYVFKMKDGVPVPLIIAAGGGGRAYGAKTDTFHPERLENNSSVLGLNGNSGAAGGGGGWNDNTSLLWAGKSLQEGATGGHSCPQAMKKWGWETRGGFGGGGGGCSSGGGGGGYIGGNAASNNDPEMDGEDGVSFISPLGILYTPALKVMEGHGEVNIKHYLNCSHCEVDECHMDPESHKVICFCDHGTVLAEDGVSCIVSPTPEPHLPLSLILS

Kd [nM] | Binder
317 | Ab435 (antibody, V domains shown, humanized) VH: QVQLVQSGAEVAKPGTSVKLSCKASGYTFTSYWMHWVKQAPGQGLEWIGYIKPSSGYTKYNQKFKDKVTLTADKSTSTAYMELSSLRSEDTAVYYCARDYYGSSSWFAYWGQGTLVTVSS VL: EIVMTQSQATMSTSVGERATLSCKASQNVGTNVAWYQQKPGQSPKALIYGASTRATGVPARFSGSGSGTDFTLTISSVEPEDFAVYYCQQYNSYPYMYTFGQGTKLEIK
310 | Ab438 (antibody, V domains shown, humanized) VH: EVQLVQSGAEVKKPGTSVKLSCKASGYTFTSYWMHWVRQARGQRLEWIGYIKPSSGYTKYAQKFQERVTLTADKSTSTAYMELSSLRSEDTAVYYCARDYYGSSSWFAYWGQGTLVTVSS VL: EIVMTQSQATMSTSVGERATLSCKASQNVGTNVAWYQQKPGQSPKALIYGASTRATGVPARFSGSGSGTDFTLTISSVEPEDFAVYYCQQYNSYPYMYTFGQGTKLEIK
219 | Ab442 (antibody, V domains shown, humanized) VH: EVQLVQSGAEVKKPGASVKLSCKASGYTFTSYWMHWVRQAPGQGLEWIGYIKPSSGYTKYAQKLQGRVTLTADKSTSTAYMELRSLRSDDTAVYYCARDYYGSSSWFAYWGQGTLVTVSS VL: EIVMTQSQATMSTSVGERATLSCKASQNVGTNVAWYQQKPGQSPKALIYGASTRATGVPARFSGSGSGTDFTLTISSVEPEDFAVYYCQQYNSYPYMYTFGQGTKLEIK
393 | Ab446 (antibody, V domains shown, humanized) VH: EVQLVQSGAEVKKPGSSVKLSCKASGYTFSSYWMHWVKQAPGQGLEWIGYIKPSSGYTKYAQKFQGRVTLTADKSTSTAYMELSSLRSEDTAVYYCARDYYGSSSWFAYWGQGTLVTVSS VL: EIVMTQSQATMSTSVGERATLSCKASQNVGTNVAWYQQKPGQSPKALIYGASTRATGVPARFSGSGSGTDFTLTISSVEPEDFAVYYCQQYNSYPYMYTFGQGTKLEIK
110 | Ab406 (antibody, V domains shown, humanized) VH: EVQLVQSGAEVKKPGASVKLSCKASGYTFTSYWMHWVRQAPGQGLEWIGYIKPSSGYTKYAQKLQGRVTLTADKSTSTAYMELRSLRSDDTAVYYCARDYYGSSSWFAYWGQGTLVTVSS VL: EIVMTQSQATMSTSVGERATLSCKASQNVGTNVAWYQQKPGQSPKALIYSASYRYSGVPARFSGSGSGTDFTLTISSVEPEDFAVYYCQQYNSYPYMYTFGQGTKLEIK
120 | Ab436 (antibody, V domains shown, humanized) VH: EVQLVQSGPEVKKPGTSVKLSCKASGYTFTSYWMHWVRQARGQRLEWIGYIKPSSGYTKYNQKFKDRATLTADKSTSTAYMELSSLRSEDTAVYYCARDYYGSSSWFAYWGQGTLVTVSS VL: EIVMTQSQATMSTSVGERATLSCKASQNVGTNVAWYQQKPGQSPKALIYGASTRATGVPARFSGSGSGTDFTLTISSVEPEDFAVYYCQQYNSYPYMYTFGQGTKLEIK
138 | Ab439 (antibody, V domains shown, humanized) VH: QVQLVQSGAEVAKPGASVKLSCKASGYTFTSYWMHWVKQAPGQGLEWIGYIKPSSGYTKYNQKFKDKATLTADKSTSTAYMELRSLRSDDTAVYYCARDYYGSSSWFAYWGQGTLVTVSS VL: EIVMTQSQATMSTSVGERATLSCKASQNVGTNVAWYQQKPGQSPKALIYGASTRATGVPARFSGSGSGTDFTLTISSVEPEDFAVYYCQQYNSYPYMYTFGQGTKLEIK
